Our source for the ratio to parent values is PMC9279154 (Nature, 2022).

The labels stand for the following.
B1: His-tagged Loqs-PD, wild type [Drosophila melanogaster] / Drosophila melanogaster Dicer-2 (Dcr-2), wild type [Drosophila melanogaster] (parent complex)
chain 1: MDQENFHGSSLPQQLQNLHIQPQQASPNPVQTGFAPRRHYNNLVGLGNGNAVSGSPVKGAPLGQRHVKLKKEKISAQVAQLSQPGQLQLSDVGDPALAGGSGLQGGVGLMGVILPSDEALKFVSETDANGLAMKTPVSILQELLSRRGITPGYELVQIEGAIHEPTFRFRVSFKDKDTPFTAMGAGRSKKEAKHAAARALIDKLIGAQLPESPSSSAGPSVTGLTVAGSGGDGNANATGGGDASDKTVGNPIGWLQEMCMQRRWPPPSYETETEVGLPHERLFTIACSILNYREMGKGKSKKIAKRLAAHRMWMRLQETPIDSGKISDSICGELEGEVSIIQDIDRYEQVSKDFEFIKI
chain 2: MEDVEIKPRGYQLRLVDHLTKSNGIVYLPTGSGKTFVAILVLKRFSQDFDKPIESGGKRALFMCNTVELARQQAMAVRRCTNFKVGFYVGEQGVDDWTRGMWSDEIKKNQVLVGTAQVFLDMVTQTYVALSSLSVVIIDECHHGTGHHPFREFMRLFTIANQTKLPRVVGLTGVLIKGNEITNVATKLKELEITYRGNIITVSDTKEMENVMLYATKPTEVMVSFPHQEQVLTVTRLISAEIEKFYVSLDLMNIGVQPIRRSKSLQCLRDPSKKSFVKQLFNDFLYQMKEYGIYAASIAIISLIVEFDIKRRQAETLSVKLMHRTALTLCEKIRHLLVQKLQDMTYDDDDDNVNTEEVIMNFSTPKVQRFLMSLKVSFADKDPKDICCLVFVERRYTCKCIYGLLLNYIQSTPELRNVLTPQFMVGRNNISPDFESVLERKWQKSAIQQFRDGNANLMICSSVLEEGIDVQACNHVFILDPVKTFNMYVQSKGRARTTEAKFVLFTADKEREKTIQQIYQYRKAHNDIAEYLKDRVLEKTEPELYEIKGHFQDDIDPFTNENGAVLLPNNALAILHRYCQTIPTDAFGFVIPWFHVLQEDERDRIFGVSAKGKHVISINMPVNCMLRDTIYSDPMDNVKTAKISAAFKACKVLYSLGELNERFVPKTLKERVASIADVHFEHWNKYGDSVTATVNKADKSKDRTYKTECPLEFYDALPRVGEICYAYEIFLEPQFESCEYTEHMYLNLQTPRNYAILLRNKLPRLAEMPLFSNQGKLHVRVANAPLEVIIQNSEQLELLHQFHGMVFRDILKIWHPFFVLDRRSKENSYLVVPLILGAGEQKCFDWELMTNFRRLPQSHGSNVQQREQQPAPRPEDFEGKIVTQWYANYDKPMLVTKVHRELTPLSYMEKNQQDKTYYEFTMSKYGNRIGDVVHKDKFMIEVRDLTEQLTFYVHNRGKFNAKSKAKMKVILIPELCFNFNFPGDLWLKLIFLPSILNRMYFLLHAEALRKRFNTYLNLHLLPFNGTDYMPRPLEIDYSLKRNVDPLGNVIPTEDIEEPKSLLEPMPTKSIEASVANLEITEFENPWQKYMEPVDLSRNLLSTYPVELDYYYHFSVGNVCEMNEMDFEDKEYWAKNQFHMPTGNIYGNRTPAKTNANVPALMPSKPTVRGKVKPLLILQKTVSKEHITPAEQGEFLAAITASSAADVFDMERLEILGDSFLKLSATLYLASKYSDWNEGTLTEVKSKLVSNRNLLFCLIDADIPKTLNTIQFTPRYTWLPPGISLPHNVLALWRENPEFAKIIGPHNLRDLALGDEESLVKGNCSDINYNRFVEGCRANGQSFYAGADFSSEVNFCVGLVTIPNKVIADTLEALLGVIVKNYGLQHAFKMLEYFKICRADIDKPLTQLLNLELGGKKMRANVNTTEIDGFLINHYYLEKNLGYTFKDRRYLLQALTHPSYPTNRITGSYQELEFIGDAILDFLISAYIFENNTKMNPGALTDLRSALVNNTTLACICVRHRLHFFILAENAKLSEIISKFVNFQESQGHRVTNYVRILLEEADVQPTPLDLDDELDMTELPHANKCISQEAEKGVPPKGEFNMSTNVDVPKALGDVLEALIAAVYLDCRDLQRTWEVIFNLFEPELQEFTRKVPINHIRQLVEHKHAKPVFSSPIVEGETVMVSCQFTCMEKTIKVYGFGSNKDQAKLSAAKHALQQLSKCDA

The variants in the assay derive from B1. Put plainly: pull-down; parent: 1; read off a plot.
For chain 1 F356D, the ratio to parent was roughly 0.06.

As to chain 1 I359D, the ratio to parent is roughly 0.04.

As to chain 1 Y347A, the ratio to parent was roughly 0.1.
